Experimental data taken from patent publication US20250090663A1.

Experiments:
Human GPC3.hFc = test: SPR (Carterra)
Cyno GPC3.hFc = test: SPR (Carterra)

HGC33 scFv was tested, and the Kd (Human GPC3.hFc) was 2.63 nM and the Kd (Cyno GPC3.hFc) was 2.46 nM.
